In article PMC11835246, “Capsid transfer of the retrotransposon Copia controls structural synaptic plasticity in Drosophila” (PLOS Biology, 2025):

B1: Copia^Gag capsid protein (wild type), auto-processed from His6-SUMO-Copia^Gag+PR (natural protein)
chain: not shown
notes: Copia retrotransposon Gag (capsid CA, residues 1-186, and nucleocapsid NC, residues 186-270), Drosophila; product of auto-processing of the short spliced form Copia^Gag+PR, whose protease part is cut off in E. coli; Limits 1-270 put together from the stated CA (1-186) and NC (186-270) domains; the cleavage site between Gag and PR is not otherwise stated; Carries co-purified RNA unless this is …

Assays:
[1] = biological target: the molecule itself; test: negative-stain EM; purified Copia^Gag after removal of His6-SUMO, with co-purified RNA, 0.8 mg/ml, 1% uranyl acetate; capsid-like particles of 30 nm to more than 120 nm
[2] = biological target: B1; test: SEC; Superose 6 Increase 10/300 GL after overnight Ulp1 digestion; 25 mM HEPES pH 7.4, 150 mM NaCl, 10% glycerol, 100 uM ZnCl2, 500 mM imidazole, 2 mM 2-mercaptoethanol; assembled capsids elute at fraction 7, unassembled protein at fractions 24 to 26; conditions: both partners purified

Binder: B1
- binding result [1]: binds

B2: Copia^GagΔNC (domain or fragment)
chain: not shown
notes: Copia retrotransposon Gag, Drosophila, capsid (CA) region only; residue H186 mutated to a stop codon in the pSMT3_His6-SUMO-Copia^Gag+PR plasmid, so the chain ends at residue 185 and lacks the NC (Zn-finger) domain; also called Copia^gag-ΔNC variant; not shown: His6-SUMO, N-terminal, cleaved
- binding result [2]: binds
